Data taken from paper doi:10.1101/608273.

Target: dNxf2^UBA (recombinant) (Drosophila) (UniProt Q9VV73)
Assay: ITC

Sequence of UniProt Q9VV73 (Q9VV73 whole entry): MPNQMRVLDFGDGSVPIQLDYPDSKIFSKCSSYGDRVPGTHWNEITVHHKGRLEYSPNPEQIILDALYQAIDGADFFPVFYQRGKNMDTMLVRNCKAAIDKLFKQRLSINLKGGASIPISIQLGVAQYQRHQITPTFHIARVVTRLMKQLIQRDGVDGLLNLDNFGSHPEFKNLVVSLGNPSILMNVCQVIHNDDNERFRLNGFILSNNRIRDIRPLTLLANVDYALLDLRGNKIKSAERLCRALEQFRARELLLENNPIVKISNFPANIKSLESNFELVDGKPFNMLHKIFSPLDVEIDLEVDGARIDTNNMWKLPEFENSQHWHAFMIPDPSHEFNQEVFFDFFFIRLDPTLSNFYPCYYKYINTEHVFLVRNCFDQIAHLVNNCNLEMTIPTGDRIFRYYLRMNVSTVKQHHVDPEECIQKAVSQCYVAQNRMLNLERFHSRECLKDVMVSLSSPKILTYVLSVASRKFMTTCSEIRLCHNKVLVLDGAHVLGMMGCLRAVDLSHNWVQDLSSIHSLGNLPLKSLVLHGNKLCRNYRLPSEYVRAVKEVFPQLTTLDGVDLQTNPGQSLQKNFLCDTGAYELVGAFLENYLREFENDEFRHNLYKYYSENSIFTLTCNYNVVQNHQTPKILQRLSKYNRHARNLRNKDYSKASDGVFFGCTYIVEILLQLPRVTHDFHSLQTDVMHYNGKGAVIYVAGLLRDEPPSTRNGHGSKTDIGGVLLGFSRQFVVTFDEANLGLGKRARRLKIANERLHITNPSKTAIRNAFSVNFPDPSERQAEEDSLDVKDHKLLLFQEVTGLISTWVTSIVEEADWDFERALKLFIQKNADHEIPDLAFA

Kd: 3.2 µM
Substance: Purified Panx^NIR (from UniProt Q9W2H9 315-343) (domain or fragment)
